Results reported in the supplement of paper PMC9112550, “Optimization of the antimicrobial peptide Bac7 by deep mutational scanning” (BMC Biology, 2022).

The sequences below were run on Escherichia coli TOP10 (assay: shrunken log2 fold change of peptide-encoding DNA abundance (4.5 h post-induction vs induction); higher = less antimicrobial activity (less host growth inhibition)). Details: time post-induction: 4.5 h; library: site-saturation at positions 5, 18, 19, 20.
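Note: peptides expressed intracellularly from a pBAD plasmid library in pooled LB shake-flask culture, induced with 0.3% L-arabinose, DNA abundance read by NGS, three biological replicates, DESeq2 with apeglm shrinkage.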

| Sequence | shrunken log2 fold change |
| --- | --- |
| RRIRCRPPRLPRPRPRPNDAPRP | -0.12 |
| RRIRERPPRLPRPRPRPPRYPRP | -0.202 |
| RRIRIRPPRLPRPRPRPHQCPRP | -0.331 |
| RRIRIRPPRLPRPRPRPRFSPRP | -0.231 |
| RRIRDRPPRLPRPRPRPVVMPRP | 0.194 |
| RRIRVRPPRLPRPRPRPWNGPRP | -0.277 |
| RRIRVRPPRLPRPRPRPFLQPRP | 0.15 |
| RRIRTRPPRLPRPRPRPWFCPRP | -0.392 |
| RRIRTRPPRLPRPRPRPHYTPRP | -1.01 |
| RRIRIRPPRLPRPRPRPCCFPRP | -0.725 |
| RRIRCRPPRLPRPRPRPKHLPRP | -0.122 |
| RRIRARPPRLPRPRPRPVKFPRP | -0.0699 |
| RRIRFRPPRLPRPRPRPAQLPRP | 0.36 |
| RRIRIRPPRLPRPRPRPVMFPRP | -0.255 |
| RRIRWRPPRLPRPRPRPPNPPRP | 0.878 |
| RRIRPRPPRLPRPRPRPSIDPRP | -0.598 |
| RRIRHRPPRLPRPRPRPPDEPRP | 0.43 |
| RRIRGRPPRLPRPRPRPYAVPRP | 2.53 |
| RRIRDRPPRLPRPRPRPSCDPRP | -0.0948 |
| RRIRSRPPRLPRPRPRPWYPPRP | -0.301 |
| RRIRERPPRLPRPRPRPCFDPRP | -0.144 |
| RRIRLRPPRLPRPRPRPMVHPRP | 0.012 |
| RRIRERPPRLPRPRPRPEHIPRP | -0.594 |
| RRIRTRPPRLPRPRPRPQAAPRP | -0.0432 |
| RRIRTRPPRLPRPRPRPVDGPRP | 0.0538 |

| Sequence | shrunken log2 fold change |
| --- | --- |
| RRIRHRPPRLPRPRPRPQAHPRP | -0.0538 |
| RRIRYRPPRLPRPRPRPPIKPRP | -0.518 |
| RRIRSRPPRLPRPRPRPPKLPRP | -0.11 |
| RRIRPRPPRLPRPRPRPGDGPRP | 0.979 |
| RRIRVRPPRLPRPRPRPLLYPRP | -0.259 |
| RRIRFRPPRLPRPRPRPRVPPRP | 0.291 |
| RRIRHRPPRLPRPRPRPICRPRP | 0.0125 |
| RRIRIRPPRLPRPRPRPVNYPRP | -0.0508 |
| RRIRMRPPRLPRPRPRPGFNPRP | -0.106 |
| RRIRWRPPRLPRPRPRPDIPPRP | -0.367 |
| RRIRVRPPRLPRPRPRPVWMPRP | 0.52 |
| RRIRGRPPRLPRPRPRPLIIPRP | -0.05 |
| RRIRWRPPRLPRPRPRPGKDPRP | -0.222 |
| RRIRYRPPRLPRPRPRPHREPRP | -0.00804 |
| RRIRERPPRLPRPRPRPTSAPRP | 0.153 |
| RRIRARPPRLPRPRPRPKAYPRP | 0.088 |
| RRIRKRPPRLPRPRPRPQPNPRP | 0.159 |
| RRIRGRPPRLPRPRPRPWSGPRP | 0.0316 |
| RRIRARPPRLPRPRPRPDKRPRP | 0.109 |
| RRIRTRPPRLPRPRPRPNKRPRP | -0.265 |
| RRIRCRPPRLPRPRPRPGGCPRP | 0.153 |
| RRIRSRPPRLPRPRPRPFFRPRP | -0.0536 |
| RRIRNRPPRLPRPRPRPMFMPRP | -0.424 |
| RRIRERPPRLPRPRPRPKCMPRP | -0.0455 |
| RRIRLRPPRLPRPRPRPGRTPRP | 0.292 |

| Sequence | shrunken log2 fold change |
| --- | --- |
| RRIRVRPPRLPRPRPRPRKMPRP | 0.299 |
| RRIRERPPRLPRPRPRPIPEPRP | -0.882 |
| RRIRCRPPRLPRPRPRPEAVPRP | 0.383 |
| RRIRKRPPRLPRPRPRPPRYPRP | 0.525 |
| RRIRNRPPRLPRPRPRPCIHPRP | -0.355 |
| RRIRTRPPRLPRPRPRPPSRPRP | 0.191 |
| RRIRPRPPRLPRPRPRPKIRPRP | -0.137 |
| RRIRLRPPRLPRPRPRPLMRPRP | 0.807 |
| RRIRHRPPRLPRPRPRPHWFPRP | -0.198 |
| RRIRVRPPRLPRPRPRPSAKPRP | -0.354 |
| RRIRDRPPRLPRPRPRPAPVPRP | 0.49 |
| RRIRGRPPRLPRPRPRPVWVPRP | 0.509 |
| RRIRMRPPRLPRPRPRPERLPRP | 0.442 |
| RRIRCRPPRLPRPRPRPTPSPRP | 0.736 |
| RRIRRRPPRLPRPRPRPADIPRP | -0.0589 |
| RRIRIRPPRLPRPRPRPGLSPRP | -0.0218 |
| RRIRSRPPRLPRPRPRPEMVPRP | 0.0797 |
| RRIRVRPPRLPRPRPRPNCMPRP | -0.222 |
| RRIRQRPPRLPRPRPRPTSMPRP | -0.049 |
| RRIRRRPPRLPRPRPRPYFRPRP | -0.203 |
| RRIRVRPPRLPRPRPRPTVIPRP | -0.127 |
| RRIRERPPRLPRPRPRPWCNPRP | -0.112 |
| RRIRDRPPRLPRPRPRPHDRPRP | -0.00543 |
| RRIRMRPPRLPRPRPRPGPCPRP | 0.915 |
| RRIRWRPPRLPRPRPRPGDKPRP | -0.00136 |

| Sequence | shrunken log2 fold change |
| --- | --- |
| RRIRIRPPRLPRPRPRPHFWPRP | 0.0146 |
| RRIRRRPPRLPRPRPRPAHMPRP | 0.405 |
| RRIRDRPPRLPRPRPRPGSKPRP | -0.126 |
| RRIRSRPPRLPRPRPRPNGPPRP | -0.42 |
| RRIRHRPPRLPRPRPRPNQTPRP | -0.0854 |
| RRIRPRPPRLPRPRPRPVWNPRP | -0.109 |
| RRIRVRPPRLPRPRPRPHLKPRP | -0.284 |
| RRIRKRPPRLPRPRPRPGGSPRP | 0.178 |
| RRIRGRPPRLPRPRPRPSTCPRP | 0.18 |
| RRIRSRPPRLPRPRPRPDTLPRP | -0.126 |
| RRIRMRPPRLPRPRPRPTCSPRP | 0.134 |
| RRIRTRPPRLPRPRPRPHAAPRP | 0.0465 |
| RRIRYRPPRLPRPRPRPDRSPRP | 0.00326 |
| RRIRLRPPRLPRPRPRPIKRPRP | -0.466 |
| RRIRMRPPRLPRPRPRPSPLPRP | 0.302 |
| RRIRKRPPRLPRPRPRPINPPRP | 0.0583 |
| RRIRMRPPRLPRPRPRPMCMPRP | -0.179 |
| RRIRIRPPRLPRPRPRPFIPPRP | -0.697 |
| RRIRFRPPRLPRPRPRPWPEPRP | 0.0713 |
| RRIRSRPPRLPRPRPRPLGTPRP | -0.216 |
| RRIRLRPPRLPRPRPRPQGKPRP | 0.0467 |
| RRIRWRPPRLPRPRPRPNCVPRP | 0.0603 |
| RRIRMRPPRLPRPRPRPDTFPRP | 0.403 |
| RRIRARPPRLPRPRPRPLRPPRP | 1.08 |
| RRIRVRPPRLPRPRPRPYKAPRP | -0.0443 |

| Sequence | shrunken log2 fold change |
| --- | --- |
| RRIRYRPPRLPRPRPRPRHFPRP | -0.209 |
| RRIRFRPPRLPRPRPRPAFAPRP | 0.33 |
| RRIRQRPPRLPRPRPRPFVLPRP | -0.277 |
| RRIRVRPPRLPRPRPRPDLFPRP | -0.045 |
| RRIRSRPPRLPRPRPRPFESPRP | -0.258 |
| RRIRPRPPRLPRPRPRPLHVPRP | -0.163 |
| RRIRGRPPRLPRPRPRPAFPPRP | 0.313 |
| RRIRPRPPRLPRPRPRPRMHPRP | 0.115 |
| RRIRSRPPRLPRPRPRPDVSPRP | -0.0357 |
| RRIRERPPRLPRPRPRPPFGPRP | 0.577 |
| RRIRFRPPRLPRPRPRPCEAPRP | 0.122 |
| RRIRHRPPRLPRPRPRPLYMPRP | -0.00599 |
| RRIRGRPPRLPRPRPRPEMDPRP | 0.982 |
| RRIRVRPPRLPRPRPRPVKEPRP | 0.629 |
| RRIRARPPRLPRPRPRPVNCPRP | 1.04 |
| RRIRCRPPRLPRPRPRPRCSPRP | -0.0164 |
| RRIRCRPPRLPRPRPRPEGKPRP | 0.31 |
| RRIRFRPPRLPRPRPRPHHMPRP | 0.335 |
| RRIRDRPPRLPRPRPRPKMKPRP | -0.42 |
| RRIRCRPPRLPRPRPRPTKPPRP | 0.531 |
| RRIRTRPPRLPRPRPRPQFYPRP | -0.791 |
| RRIRIRPPRLPRPRPRPRQQPRP | 0.0393 |
| RRIRNRPPRLPRPRPRPKIEPRP | -0.0398 |
| RRIRCRPPRLPRPRPRPMLVPRP | -0.144 |
| RRIRERPPRLPRPRPRPFCIPRP | -0.346 |

| Sequence | shrunken log2 fold change |
| --- | --- |
| RRIRRRPPRLPRPRPRPTSEPRP | 0.372 |
| RRIRVRPPRLPRPRPRPKAFPRP | 0.00341 |
| RRIRWRPPRLPRPRPRPKVYPRP | -0.0533 |
| RRIRQRPPRLPRPRPRPTHGPRP | 0.0759 |
| RRIRKRPPRLPRPRPRPHFRPRP | -0.138 |
| RRIRKRPPRLPRPRPRPWDWPRP | 0.504 |
| RRIRKRPPRLPRPRPRPSMEPRP | 0.181 |
| RRIRIRPPRLPRPRPRPHPMPRP | -0.133 |
| RRIRVRPPRLPRPRPRPAFPPRP | 0.246 |
| RRIRYRPPRLPRPRPRPDYWPRP | -0.134 |
| RRIRERPPRLPRPRPRPLCIPRP | -0.895 |
| RRIRKRPPRLPRPRPRPRWCPRP | 0.251 |
| RRIRGRPPRLPRPRPRPRKEPRP | 0.363 |
| RRIRGRPPRLPRPRPRPETAPRP | 1.76 |
| RRIRHRPPRLPRPRPRPTQWPRP | 0.0126 |
| RRIRDRPPRLPRPRPRPYFEPRP | -0.3 |
| RRIRERPPRLPRPRPRPGSLPRP | -0.431 |
| RRIRYRPPRLPRPRPRPFKDPRP | -0.0864 |
| RRIRTRPPRLPRPRPRPNGAPRP | -0.0908 |
| RRIRIRPPRLPRPRPRPYWRPRP | -0.478 |
| RRIRSRPPRLPRPRPRPDFAPRP | -0.021 |
| RRIRERPPRLPRPRPRPYPMPRP | -0.172 |
| RRIRGRPPRLPRPRPRPLYNPRP | -0.247 |
| RRIRQRPPRLPRPRPRPTCWPRP | 0.0954 |
| RRIRVRPPRLPRPRPRPLEFPRP | -0.114 |
